Assay results reported in article PMC5108336, “Tubular epithelial cells in renal clear cell carcinoma express high RIPK1/3 and show increased susceptibility to TNF receptor 1-induced necroptosis” (Cell Death & Disease, 2016).

T1: Mixed lineage kinase domain-like phosphorylated at Serine 358 (human (endogenous in RCC and kidney …, UniProt Q8NB16 1-471, phosphoserine at 358))
T1 construct: also called pMLKL^Ser358; phospho-MLKL^Ser358; source: endogenous, organ cultures of human RCC grade 1 and adjacent non-tumor kidney (tissue sections)
T1 sequence (looked up): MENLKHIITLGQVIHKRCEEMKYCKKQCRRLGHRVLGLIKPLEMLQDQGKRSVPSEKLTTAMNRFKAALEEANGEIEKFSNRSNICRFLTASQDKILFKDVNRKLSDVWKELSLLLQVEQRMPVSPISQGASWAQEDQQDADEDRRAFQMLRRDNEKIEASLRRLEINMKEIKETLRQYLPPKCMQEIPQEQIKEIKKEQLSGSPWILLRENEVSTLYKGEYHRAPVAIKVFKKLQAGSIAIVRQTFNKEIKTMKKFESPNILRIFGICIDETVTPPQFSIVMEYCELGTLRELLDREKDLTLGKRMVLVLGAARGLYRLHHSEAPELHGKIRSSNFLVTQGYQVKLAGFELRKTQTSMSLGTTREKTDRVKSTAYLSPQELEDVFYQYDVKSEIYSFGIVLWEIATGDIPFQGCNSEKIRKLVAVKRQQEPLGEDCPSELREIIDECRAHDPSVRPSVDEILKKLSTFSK

B1: receptor-interacting protein kinase 3 (natural protein, UniProt Q9Y572-1 1-518, looked up)
chain: MSCVKLWPSGAPAPLVSIEELENQELVGKGGFGTVFRAQHRKWGYDVAVKIVNSKAISREVKAMASLDNEFVLRLEGVIEKVNWDQDPKPALVTKFMENGSLSGLLQSQCPRPWPLLCRLLKEVVLGMFYLHDQNPVLLHRDLKPSNVLLDPELHVKLADFGLSTFQGGSQSGTGSGEPGGTLGYLAPELFVNVNRKASTASDVYSFGILMWAVLAGREVELPTEPSLVYEAVCNRQNRPSLAELPQAGPETPGLEGLKELMQLCWSSEPKDRPSFQECLPKTDEVFQMVENNMNAAVSTVKDFLSQLRSSNRRFSIPESGQGGTEMDGFRRTIENQHSRNDVMVSEWLNKLNLEEPPSSVPKKCPSLTKRSRAQEEQVPQAWTAGTSSDSMAQPPQTPETSTFRNQMPSPTSTGTPSPGPRGNQGAERQGMNWSCRTPEPNPVTGRPLVNIYNCSGVQVGDNNYLTMQQTTALPTWGLAPSGKGRGLQHPPPVGSQEGPKDPEAWSRPQGWYNHSGK
notes: Detected in situ by an anti-RIPK3 antibody; also called RIPK3; source: endogenous, organ cultures of human RCC grade 1 and adjacent non-tumor kidney (tissue sections)

Tests used:
[1] = biological target: B1; test: proximity ligation; in situ PLA (Duolink In Situ Detection Reagents Red) on sections of organ cultures of RCC grade 1 and adjacent non-tumor kidney (NK), untreated (UT) or treated with wtTNF (10 ng/ml), R1TNF or R2TNF (1 ug/ml) for 3 h at 37 °C; signal when two proteins are closer than 40 nm; red spots counted in mTECs in 10 random fields at x40; settings: partners not purified
[2] = biological target: T1, Mixed lineage kinase domain-like …; test: as above; settings: partners not purified

| Binder | fold increase of PLA signal with R1TNF over untreated (non-tumor kidney organ culture) [1] | fold increase of PLA signal with R1TNF over untreated (non-tumor kidney organ culture) [2] |
| --- | --- | --- |
| receptor-interacting protein kinase 1 (natural protein, UniProt Q13546-1 1-671, looked up, Detected in situ by an anti-RIPK1 antibody; also called RIPK1; source: endogenous, organ cultures of human RCC grade 1 and adjacent non-tumor kidney (tissue sections)) MQPDMSLNVIKMKSSDFLESAELDSGGFGKVSLCFHRTQGLMIMKTVYKGPNCIEHNEALLEEAKMMNRLRHSRVVKLLGVIIEEGKYSLVMEYMEKGNLMHVLKAEMSTPLSVKGRIILEIIEGMCYLHGKGVIHKDLKPENILVDNDFHIKIADLGLASFKMWSKLNNEEHNELREVDGTAKKNGGTLYYMAPEHLNDVNAKPTEKSDVYSFAVVLWAIFANKEPYENAICEQQLIMCIKSGNRPDVDDITEYCPREIISLMKLCWEANPEARPTFPGIEEKFRPFYLSQLEESVEEDVKSLKKEYSNENAVVKRMQSLQLDCVAVPSSRSNSATEQPGSLHSSQGLGMGPVEESWFAPSLEHPQEENEPSLQSKLQDEANYHLYGSRMDRQTKQQPRQNVAYNREEERRRRVSHDPFAQQRPYENFQNTEGKGTAYSSAASHGNAVHQPSGLTSQPQVLYQNNGLYSSHGFGTRPLDPGTAGPRVWYRPIPSHMPSLHNIPVPETNYLGNTPTMPFSSLPPTDESIKYTIYNSTGIQIGAYNYMEIGGTSSSLLDSTNTNFKEEPAAKYQAIFDNTTSLTDKHLDPIRENLGKHWKNCARKLGFTQSQIDEIDHDYERDGLKEKVYQMLQKWVMREGIKGATVGKLAQALHQCSRIDLLSSLIYVSQN | ~3 fold |  |
| B1 |  | ~2.5 fold |
